Experimental data reported in the supplement of paper PMC5998384.

Columns and labels:
HeLa Kyoto [1] = test: solubility in G1/S (NP-40 vs SDS abundance) (log2 ratio); higher = more soluble; conditions: cell cycle stage: G1/S
HeLa Kyoto [2] = test: solubility change mitosis vs G1/S (difference of NP-40 vs SDS log2 ratios) (log2 ratio difference); higher = more soluble in mitosis
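For solubility change mitosis vs G1/S (difference of NP-40 vs SDS log2 ratios) in this document: synchronized HeLa Kyoto cells (double thymidine block for G1/S, nocodazole release for mitosis), protein amounts in NP-40 versus SDS lysates quantified by mass spectrometry, three biological replicates.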
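For solubility in G1/S (NP-40 vs SDS abundance) in this document: HeLa Kyoto cells arrested at G1/S by double thymidine block, proteins quantified by TMT10plex mass spectrometry in mild NP-40 versus SDS extracts, three biological replicates.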

| Substance | solubility in G1/S (log2) (HeLa Kyoto [1]) | solubility change mitosis (log2) (HeLa Kyoto [2]) |
| --- | --- | --- |
| MSGTSKESLGHGGLPGLGKTCLTTMDTKLNMLNEKVDQLLHFQEDVTEKLQSMCRDMGHLERGLHRLEASRAPGPGGADGVPHIDTQAGWPEVLELVRAMQQDAAQHGARLEALFRMVAAVDRAIALVGATFQKSKVADFLMQGRVPWRRGSPGDSPEENKERVEEEGGKPKHVLSTSGVQSDAREPGEESQKADVLEGTAERLPPIRASGLGADPAQAVVSPGQGDGVPGPAQAFPGHLPLPTKVEAKAPETPSENLRTGLELAPAPGRVNVVSPSLEVAPGAGQGASSSRPDPEPLEEGTRLTPGPGPQCPGPPGLPAQARATHSGGETPPRISIHIQEMDTPGEMLMTGRGSLGPTLTTEAPAAAQPGKQGPPGTGRCLQAPGTEPGEQTPEGARELSPLQESSSPGGVKAEEEQRAGAEPGTRPSLARSDDNDHEVGALGLQQGKSPGAGNPEPEQDCAARAPVRAEAVRRMPPGAEAGSVVLDDSPAPPAPFEHRVVSVKETSISAGYEVCQHEVLGGGRFGQVHRCTEKSTGLPLAAKIIKVKSAKDREDVKNEINIMNQLSHVNLIQLYDAFESKHSCTLVMEYVDGGELFDRITDEKYHLTELDVVLFTRQICEGVHYLHQHYILHLDLKPENILCVNQTGHQIKIIDFGLARRYKPREKLKVNFGTPEFLAPEVVNYEFVSFPTDMWSVGVITYMLLSGLSPFLGETDAETMNFIVNCSWDFDADTFEGLSEEAKDFVSRLLVKEKSCRMSATQCLKHEWLNNLPAKASRSKTRLKSQLLLQKYIAQRKWKKHFYVVTAANRLRKFPTSP [MYLK3] | -0.00349 | -0.0471 |
| HEATR5A | -0.0946 | -0.116 |
| KIAA0586 | -0.0749 | 0.00667 |
| MSSIKHLVYAVIRFLREQSQMDTYTSDEQESLEVAIQCLETVFKISPEDTHLAVSQPLTEMFTSSFCKNDVLPLSNSVPEDVGKADQLKDEGNNHMKEENYAAAVDCYTQAIELDPNNAVYYCNRAAAQSKLGHYTDAIKDCEKAIAIDSKYSKAYGRMGLALTALNKFEEAVTSYQKALDLDPENDSYKSNLKIAEQKLREVSSPTGTGLSFDMASLINNPAFISMAASLMQNPQVQQLMSGMMTNAIGGPAAGVGGLTDLSSLIQAGQQFAQQIQQQNPELIEQLRNHIRSRSFSSSAEEHS [SGTB] | 0.092 | 0.321 |
| KMT2B | -0.355 | 0.243 |
| MASESETLNPSARIMTFYPTMEEFRNFSRYIAYIESQGAHRAGLAKVVPPKEWKPRASYDDIDDLVIPAPIQQLVTGQSGLFTQYNIQKKAMTVREFRKIANSDKYCTPRYSEFEELERKYWKNLTFNPPIYGADVNGTLYEKHVDEWNIGRLRTILDLVEKESGITIEGVNTPYLYFGMWKTSFAWHTEDMDLYSINYLHFGEPKSWYSVPPEHGKRLERLAKGFFPGSAQSCEAFLRHKMTLISPLMLKKYGIPFDKVTQEAGEFMITFPYGYHAGFNHGFNCAESTNFATRRWIEYGKQAVLCSCRKDMVKISMDVFVRKFQPERYKLWKAGKDNTVIDHTLPTPEAAEFLKESELPPRAGNEEECPEEDMEGVEDGEEGDLKTSLAKHRIGTKRHRVCLEIPQEVSQSELFPKEDLSSEQYEMTECPAALAPVRPTHSSVRQVEDGLTFPDYSDSTEVKFEELKNVKLEEEDEEEEQAAAALDLSVNPASVGGRLVFSGSKKKSSSSLGSGSSRDSISSDSETSEPLSCRAQGQTGVLTVHSYAKGDGRVTVGEPCTRKKGSAARSFSERELAEVADEYMFSLEENKKSKGRRQPLSKLPRHHPLVLQECVSDDETSEQLTPEEEAEETEAWAKPLSQLWQNRPPNFEAEKEFNETMAQQAPHCAVCMIFQTYHQVEFGGFNQNCGNASDLAPQKQRTKPLIPEMCFTSTGCSTDINLSTPYLEEDGTSILVSCKKCSVRVHASCYGVPPAKASEDWMCSRCSANALEEDCCLCSLRGGALQRANDDRWVHVSCAVAILEARFVNIAERSPVDVSKIPLPRFKLKCIFCKKRRKRTAGCCVQCSHGRCPTAFHVSCAQAAGVMMQPDDWPFVVFITCFRHKIPNLERAKGALQSITAGQKVISKHKNGRFYQCEVVRLTTETFYEVNFDDGSFSDNLYPEDIVSQDCLQFGPPAEGEVVQVRWTDGQVYGAKFVASHPIQMYQVEFEDGSQLVVKRDDVYTLDEELPKRVKSRLSVASDMRFNEIFTEKEVKQEKKRQRVINSRYREDYIEPALYRAIME [KDM4A] | -0.143 | 0.0206 |
| MRSRSNSGVRLDGYARLVQQTILCHQNPVTGLLPASYDQKDAWVRDNVYSILAVWGLGLAYRKNADRDEDKAKAYELEQSVVKLMRGLLHCMIRQVDKVESFKYSQSTKDSLHAKYNTKTCATVVGDDQWGHLQLDATSVYLLFLAQMTASGLHIIHSLDEVNFIQNLVFYIEAAYKTADFGIWERGDKTNQGISELNASSVGMAKAALEALDELDLFGVKGGPQSVIHVLADEVQHCQSILNSLLPRASTSKEVDASLLSVVSFPAFAVEDSQLVELTKQEIITKLQGRYGCCRFLRDGYKTPKEDPNRLYYEPAELKLFENIECEWPLFWTYFILDGVFSGNAEQVQEYKEALEAVLIKGKNGVPLLPELYSVPPDRVDEEYQNPHTVDRVPMGKLPHMWGQSLYILGSLMAEGFLAPGEIDPLNRRFSTVPKPDVVVQVSILAETEEIKTILKDKGIYVETIAEVYPIRVQPARILSHIYSSLGCNNRMKLSGRPYRHMGVLGTSKLYDIRKTIFTFTPQFIDQQQFYLALDNKMIVEMLRTDLSYLCSRWRMTGQPTITFPISHSMLDEDGTSLNSSILAALRKMQDGYFGGARVQTGKLSEFLTTSCCTHLSFMDPGPEGKLYSEDYDDNYDYLESGNWMNDYDSTSHARCGDEVARYLDHLLAHTAPHPKLAPTSQKGGLDRFQAAVQTTCDLMSLVTKAKELHVQNVHMYLPTKLFQASRPSFNLLDSPHPRQENQVPSVRVEIHLPRDQSGEVDFKALVLQLKETSSLQEQADILYMLYTMKGPDWNTELYNERSATVRELLTELYGKVGEIRHWGLIRYISGILRKKVEALDEACTDLLSHQKHLTVGLPPEPREKTISAPLPYEALTQLIDEASEGDMSISILTQEIMVYLAMYMRTQPGLFAEMFRLRIGLIIQVMATELAHSLRCSAEEATEGLMNLSPSAMKNLLHHILSGKEFGVERSVRPTDSNVSPAISIHEIGAVGATKTERTGIMQLKSEIKQVEFRRLSISAESQSPGTSMTPSSGSFPSAYDQQSSKDSRQGQWQRRRRLDGALNRVPVGFYQKVWKVLQKCHGLSVEGFVLPSSTTREMTPGEIKFSVHVESVLNRVPQPEYRQLLVEAILVLTMLADIEIHSIGSIIAVEKIVHIANDLFLQEQKTLGADDTMLAKDPASGICTLLYDSAPSGRFGTMTYLSKAAATYVQEFLPHSICAMQ [PHKA1] | 0.037 | -0.332 |
| MAAGCCGVKKQKLSSSPPSGSGGGGGASSSSHCSGESQCRAGELGLGGAGTRLNGLGGLTGGGSGSGCTLSPPQGCGGGGGGIALSPPPSCGVGTLLSTPAAATSSSPSSSSAASSSSPGSRKMVVSAEMCCFCFDVLYCHLYGYQQPRTPRFTNEPYPLFVTWKIGRDKRLRGCIGTFSAMNLHSGLREYTLTSALKDSRFPPMTRDELPRLFCSVSLLTNFEDVCDYLDWEVGVHGIRIEFINEKGSKRTATYLPEVAKEQGWDHIQTIDSLLRKGGYKAPITNEFRKTIKLTRYRSEKMTLSYAEYLAHRQHHHFQNGIGHPLPPYNHYS [AMMECR1] | 0.255 | -0.37 |
| MAQKENSYPWPYGRQTAPSGLSTLPQRVLRKEPVTPSALVLMSRSNVQPTAAPGQKVMENSSGTPDILTRHFTIDDFEIGRPLGKGKFGNVYLAREKKSHFIVALKVLFKSQIEKEGVEHQLRREIEIQAHLHHPNILRLYNYFYDRRRIYLILEYAPRGELYKELQKSCTFDEQRTATIMEELADALMYCHGKKVIHRDIKPENLLLGLKGELKIADFGWSVHAPSLRRKTMCGTLDYLPPEMIEGRMHNEKVDLWCIGVLCYELLVGNPPFESASHNETYRRIVKVDLKFPASVPMGAQDLISKLLRHNPSERLPLAQVSAHPWVRANSRRVLPPSALQSVA [AURKB] | -1.2 | -0.11 |
| MATSLDFKTYVDQACRAAEEFVNIYYETMDKRRRALTRLYLDKATLIWNGNAVSGLDALNNFFDTLPSSEFQVNMLDCQPVHEQATQSQTTVLVVTSGTVKFDGNKQHFFNQNFLLTAQSTPNNTVWKIASDCFRFQDWSSS [NXT2] | -0.596 | 0.401 |
| MWYHRLSHLHSRLQDLLKGGVIYPALPQPNFKSLLPLAVHWHHTASKSLTCAWQQHEDHFELKYANTVMRFDYVWLRDHCRSASCYNSKTHQRSLDTASVDLCIKPKTIRLDETTLFFTWPDGHVTKYDLNWLVKNSYEGQKQKVIQPRILWNAEIYQQAQVPSVDCQSFLETNEGLKKFLQNFLLYGIAFVENVPPTQEHTEKLAERISLIRETIYGRMWYFTSDFSRGDTAYTKLALDRHTDTTYFQEPCGIQVFHCLKHEGTGGRTLLVDGFYAAEQVLQKAPEEFELLSKVPLKHEYIEDVGECHNHMIGIGPVLNIYPWNKELYLIRYNNYDRAVINTVPYDVVHRWYTAHRTLTIELRRPENEFWVKLKPGRVLFIDNWRVLHGRECFTGYRQLCGCYLTRDDVLNTARLLGLQA [TMLHE] | -0.167 | 0.114 |
| MPLRDKYCQTDHHHHGCCEPVYILEPGDPPLLQQPLQTSKSGIQQIIECFRSGTKQLKHILLKDVDTIFECKLCRSLFRGLPNLITHKKFYCPPSLQMDDNLPDVNDKQSQAINDLLEAIYPSVDKREYIIKLEPIETNQNAVFQYISRTDNPIEVTESSSTPEQTEVQIQETSTEQSKTVPVTDTEVETVEPPPVEIVTDEVAPTSDEQPQESQADLETSDNSDFGHQLICCLCRKEFNSRRGVRRHIRKVHKKKMEELKKYIETRKNPNQSSKGRSKNVLVPLSRSCPVCCKSFATKANVRRHFDEVHRGLRRDSITPDIATKPGQPLFLDSISPKKSFKTRKQKSSSKAEYNLTACKCLLCKRKYSSQIMLKRHMQIVHKITLSGTNSKREKGPNNTANSSEIKVKVEPADSVESSPPSITHSPQNELKGTNHSNEKKNTPAAQKNKVKQDSESPKSTSPSAAGGQQKTRKPKLSAGFDFKQLYCKLCKRQFTSKQNLTKHIELHTDGNNIYVKFYKCPLCTYETRRKRDVIRHITVVHKKSSRYLGKITASLEIRAIKKPIDFVLNKVAKRGPSRDEAKHSDSKHDGTSNSPSKKYEVADVGIEVKVTKNFSLHRCNKCGKAFAKKTYLEHHKKTHKANASNSPEGNKTKGRSTRSKALV [ZNF800] | -3.34 | 1.43 |
